# Substitutions are numbered along the chain they refer to.
# What was measured:
# Assay in all cases: EMSA
# Details in all cases: DIG gel shift kit (2nd generation, Roche), as in ref 14; buffer, salt, pH and temperature not stated
# [1] = system: T1, GdhR WT (Neisseria gonorrhoeae), ORF:8165ddaf
# T1 sequence: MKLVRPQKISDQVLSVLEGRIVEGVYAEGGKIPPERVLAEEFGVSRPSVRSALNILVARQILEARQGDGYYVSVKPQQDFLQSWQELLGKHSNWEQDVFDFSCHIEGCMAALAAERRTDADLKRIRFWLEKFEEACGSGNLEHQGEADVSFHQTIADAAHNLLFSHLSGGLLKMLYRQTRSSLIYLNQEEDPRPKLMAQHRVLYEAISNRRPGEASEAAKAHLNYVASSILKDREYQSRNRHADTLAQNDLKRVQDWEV
# [2] = system: GdhR WT;GdhR P6S P6S (Neisseria gonorrhoeae;Neisseria gonorrhoeae MS11), ORF:8165ddaf+ORF:8165ddaf
# [3] = system: T2, GdhR P6S P6S (Neisseria gonorrhoeae MS11), ORF:8165ddaf
# T2 sequence: T1 sequence with P6S
sequence,measurement,setting,value
GTGGACGGGGACGGCGCGGTATTCGTGCCGCCGGAAGAATGCTGAAAATGCCGTCTGAAGCCTTTCGGGCGGCTTTTTCTACACGCCCCTTTCCCACACTCCCTCCGCCGCATCATCACCATCCTTAACCCGCATTAATAGCCATTATCGATAAAATGCTTGACCGATTACATAAGATTACGTAAAGTGTGCAAACGCATAATAATTGGTCTTACCAATTTATCTTTTAACCAAAATATCGGGTGTGCGGGATTTGAACGTCTTTCCAAACCTCGACGCGCCTTATGATGC (double strand) [lctP promoter -313 to -23],binding,[1],binds
same,binding,[2],binds
same,binding,[3],binds more weakly

# Source: paper PMC9040798
